The target in assay [1] is GFP10-tagged constitutively active CDC42 L61 mutant (UniProt P60953). Put plainly: split reporter (BiFC, NanoBiT); tripartite split-GFP: GFP10-GTPase mutant and GFP11-tagged partner co-transfected in MRC5 cells stably expressing GFP1-9; fixed 20 h after transfection; percent of reconstituted GFP (rGFP) positive cells by flow cytometry. In general terms: Flow cytometry measures light scatter and fluorescence of single cells or particles in a stream.

Assay [2] has as its target GFP10-tagged constitutively active RAC1 L61 mutant (UniProt P63000). The description is as above.
The target of assay [3] is GFP10-RHOA of the triSFP-RHOA reporter cells (UniProt P61586). Nature of the assay: split reporter (BiFC, NanoBiT); intracellular competition in triSFP-RHOA cells (MRC5_GFP1-9 with doxycycline-induced GFP10-RHOA and GFP11-RBD); mCherry fusions transfected; rGFP fluorescence by flow cytometry in quartiles of mCherry expression.
The target in assay [4] is GFP10-tagged constitutively active RHOA L63 mutant (UniProt P61586). Put plainly: split reporter (BiFC, NanoBiT); tripartite split-GFP: GFP10-GTPase mutant and GFP11-tagged partner co-transfected in MRC5 cells stably expressing GFP1-9; fixed 20 h after transfection; percent of reconstituted GFP (rGFP) positive cells by flow cytometry.
Assay [5] has the same target. The assay is described as above. This is another data set of the same source.

Read-outs that look alike come from different tables or passages of the source.

Sequence of GFP10-tagged constitutively active RHOA L63 mutant (P61586 other isoform, or with tags, fused parts or gaps mutant): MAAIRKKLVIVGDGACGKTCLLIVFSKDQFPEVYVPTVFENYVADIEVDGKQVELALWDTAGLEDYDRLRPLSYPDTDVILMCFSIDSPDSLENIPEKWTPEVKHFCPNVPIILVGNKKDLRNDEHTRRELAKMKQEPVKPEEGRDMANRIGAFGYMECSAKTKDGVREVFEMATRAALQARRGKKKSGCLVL
Sequence of RHOTEKIN effector RHO Binding Domain (RBD) fused to a C-terminal GFP11 tag (domain or fragment) (Q8C6B2 whole entry, the tested form may be a part): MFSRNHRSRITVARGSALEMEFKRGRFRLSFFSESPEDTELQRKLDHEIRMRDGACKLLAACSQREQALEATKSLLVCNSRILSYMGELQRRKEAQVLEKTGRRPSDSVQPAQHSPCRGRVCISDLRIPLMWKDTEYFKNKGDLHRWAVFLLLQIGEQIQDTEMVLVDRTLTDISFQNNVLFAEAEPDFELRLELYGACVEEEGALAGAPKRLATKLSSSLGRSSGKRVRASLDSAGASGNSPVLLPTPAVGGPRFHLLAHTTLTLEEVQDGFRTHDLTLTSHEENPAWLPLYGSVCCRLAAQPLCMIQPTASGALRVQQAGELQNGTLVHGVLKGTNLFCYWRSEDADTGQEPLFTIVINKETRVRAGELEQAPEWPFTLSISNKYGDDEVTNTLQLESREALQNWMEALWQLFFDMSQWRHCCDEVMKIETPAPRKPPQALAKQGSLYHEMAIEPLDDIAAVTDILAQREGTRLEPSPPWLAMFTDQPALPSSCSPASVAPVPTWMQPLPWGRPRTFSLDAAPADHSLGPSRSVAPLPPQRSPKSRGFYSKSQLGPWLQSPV
Sequence of GFP11 tagged PAK-BD (domain or fragment) (Q13153 2-545): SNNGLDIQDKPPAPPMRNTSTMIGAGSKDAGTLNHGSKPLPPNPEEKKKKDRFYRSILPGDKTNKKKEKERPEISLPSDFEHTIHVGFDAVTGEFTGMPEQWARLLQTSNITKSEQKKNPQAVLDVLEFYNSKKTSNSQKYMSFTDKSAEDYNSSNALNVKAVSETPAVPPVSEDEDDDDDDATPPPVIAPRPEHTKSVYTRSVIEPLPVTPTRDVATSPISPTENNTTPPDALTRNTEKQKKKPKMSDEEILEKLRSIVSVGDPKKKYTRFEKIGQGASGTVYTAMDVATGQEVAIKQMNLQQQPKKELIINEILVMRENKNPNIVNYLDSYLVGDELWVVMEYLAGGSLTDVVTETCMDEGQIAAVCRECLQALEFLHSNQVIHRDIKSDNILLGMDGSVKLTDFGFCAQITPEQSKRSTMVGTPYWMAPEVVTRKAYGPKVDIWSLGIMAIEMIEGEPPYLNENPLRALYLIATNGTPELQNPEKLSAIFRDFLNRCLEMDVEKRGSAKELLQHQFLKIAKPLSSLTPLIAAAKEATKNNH
Sequence of GFP10-RHOA of the triSFP-RHOA reporter cells (P61586 whole entry, the tested form may be a part): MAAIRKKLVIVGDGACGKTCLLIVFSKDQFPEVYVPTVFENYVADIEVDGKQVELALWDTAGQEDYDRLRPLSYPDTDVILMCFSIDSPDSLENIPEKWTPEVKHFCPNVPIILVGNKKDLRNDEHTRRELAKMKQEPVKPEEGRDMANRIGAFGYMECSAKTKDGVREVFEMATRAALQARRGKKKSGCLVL
Sequence of GFP10-tagged constitutively active CDC42 L61 mutant (P60953 other isoform, or with tags, fused parts or gaps mutant): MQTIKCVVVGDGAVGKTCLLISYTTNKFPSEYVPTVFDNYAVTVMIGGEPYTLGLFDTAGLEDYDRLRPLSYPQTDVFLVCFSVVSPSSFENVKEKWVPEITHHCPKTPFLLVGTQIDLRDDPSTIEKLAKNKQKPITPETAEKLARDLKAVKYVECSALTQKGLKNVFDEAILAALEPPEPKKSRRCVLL

On to “GFP11 tagged PAK-BD (domain or fragment)”, for which the percent rGFP positive cells is 11.8% in assay [1] and 9.9% in assay [2].

RBD-mCherry (domain or fragment) came in with a percent decrease of rGFP fluorescence (competition with GFP11-RBD) in assay [3] of 20%. As to “RHOTEKIN effector RHO Binding Domain (RBD) fused to a C-terminal GFP11 tag (domain or fragment)”, the percent rGFP positive cells in assay [4] was determined as 28%; in assay [5] it was 25%.

The record behind these values is PMC9433928.
